This passage reports Kd results from the Immune Epitope Database (IEDB).

The target in one test is HLA-A*11:01. The test can be described thus: IEDB peptide-MHC binding, purified MHC/competitive/fluorescence; filed as Kd, often an IC50 or EC50 that approximates it; ≥ and ≤ were set here for values at or beyond the usual limits of such assays.
Test [1] addresses HLA-A*02:01. The description is as above.
Test [2] deals with HLA-A*02:12. Described as above. Conditions: source organism: Listeria monocytogenes EGD-e.
Test [3] has as its target HLA-A*03:01. The test is described as above.
The target in test [4] is HLA-A*26:01. The test is described as above.
Test [5] concerns the target HLA-A*29:02. The test is described as above.
In test [6] the target is HLA-B*15:01. The test is described as above.
Test [7] has as its target HLA-B*18:01. Described as above.
The target in another test is HLA-B*27:03. Described as above.
In the next test the target is HLA-B*39:01. Described as above.
Test [8] deals with HLA-B*46:01. Described as above.
For test [9], the target named is HLA-B*57:01. The test is described as above.
For a further test, the target named is HLA-A*01:01. The test can be described thus: IEDB peptide-MHC binding, purified MHC/direct/fluorescence; filed as Kd, often an IC50 or EC50 that approximates it; ≥ and ≤ were set here for values at or beyond the usual limits of such assays. The following applies: source organism: Yellow fever virus.
Test [10] addresses HLA-A*02:01. Described as above.
The target in test [11] is HLA-A*03:01. The description is as above.
The target of test [12] is HLA-A*29:02. The test is described as above. Conditions: source organism: Yellow fever virus.
In test [13] the target is HLA-A*31:01. The test is described as above. The following applies: source organism: Yellow fever virus.
Test [14] concerns the target HLA-A*69:01. The test is described as above.
Test [15] has as its target HLA-B*15:01. The test is described as above.
The target in test [16] is HLA-B*18:01. The test is described as above. Conditions: source organism: Yellow fever virus.
A further test deals with HLA-B*27:05. The test is described as above. Conditions: source organism: Yellow fever virus.
A further test has as its target HLA-B*40:01. Described as above.
The next test addresses HLA-B*44:02. The test is described as above. Conditions: source organism: Yellow fever virus.
In test [17] the target is HLA-B*46:01. The description is as above. The following applies: source organism: Yellow fever virus.
Another test deals with HLA-B*48:01. The description is as above. The following applies: source organism: Yellow fever virus.
In test [18] the target is HLA-B*57:01. The test is described as above. The following applies: source organism: Yellow fever virus.
In a further test the target is HLA-B*58:01. The test is described as above. The following applies: source organism: Yellow fever virus.
Test [19] concerns the target HLA-A*31:01. The test can be described thus: IEDB peptide-MHC binding, purified MHC/competitive/fluorescence; filed as Kd, often an IC50 or EC50 that approximates it; ≥ and ≤ were set here for values at or beyond the usual limits of such assays. The following applies: source organism: Encephalitozoon cuniculi GB-M1.
The next test addresses HLA-A*02:03. The test can be described thus: IEDB peptide-MHC binding, purified MHC/direct/fluorescence; filed as Kd, often an IC50 or EC50 that approximates it; ≥ and ≤ were set here for values at or beyond the usual limits of such assays.
In another test the target is HLA-A*02:11. Described as above.
For test [20], the target named is HLA-A*02:12. The description is as above.
The next test concerns the target HLA-A*02:16. The test is described as above.
A further test concerns the target HLA-A*02:19. Described as above.
Test [21] addresses HLA-A*26:01. Described as above. Conditions: source organism: Orthohantavirus andesense.
The target of another test is HLA-A*68:02. The description is as above.
For test [22], the target named is HLA-A*69:01. The test can be described thus: IEDB peptide-MHC binding, purified MHC/competitive/fluorescence; filed as Kd, often an IC50 or EC50 that approximates it; ≥ and ≤ were set here for values at or beyond the usual limits of such assays.
The next test concerns the target HLA-B*51:01. Described as above.
A further test concerns the target HLA-A*24:03. The test can be described thus: IEDB peptide-MHC binding, purified MHC/direct/fluorescence; filed as Kd, often an IC50 or EC50 that approximates it; ≥ and ≤ were set here for values at or beyond the usual limits of such assays. Conditions: source organism: Zaire ebolavirus.
For a further test, the target named is HLA-B*15:17. The test can be described thus: IEDB peptide-MHC binding, purified MHC/competitive/fluorescence; filed as Kd, often an IC50 or EC50 that approximates it; ≥ and ≤ were set here for values at or beyond the usual limits of such assays. The following applies: source organism: Zaire ebolavirus.
Where [23] appears, read: source organism: Listeria monocytogenes EGD-e.
Where [24] appears, read: source organism: Yellow fever virus.
The mark [25] stands for this setting: source organism: Encephalitozoon cuniculi GB-M1.
Setting [26] is: source organism: Pergamino virus.
[27] abbreviates: source organism: Lechiguanas virus.
Setting [28] is: source organism: Zaire ebolavirus.
Setting [29] is: source organism: Camelpox virus M-96.

For orientation: Kd means a measure of binding affinity in units of concentration. Low values mean higher affinity, high ones lower affinity. The sequence HAGAKSFYK had a dissociation constant (Kd) with HLA-A*11:01 (source organism: Influenza A virus (A/California/04/2009(H1N1))) of 0.0055 µM.

Turning to LAIVTTPLV, the Kd in the test with HLA-A*02:01 [1] (setting [23]) is 0.0272 µM; with HLA-A*02:12 [2], 0.144 µM; in the test with HLA-A*03:01 [3] (setting [23]), ≥ 20 µM; in the test with HLA-A*26:01 [4] (setting [23]) it was ≥ 20 µM; with HLA-A*29:02 [5] (setting [23]), ≥ 20 µM; in the test with HLA-B*15:01 [6] (setting [23]) it was ≥ 20 µM. Moreover, the dissociation constant (Kd) with HLA-B*18:01 [7] (setting [23]), with HLA-B*27:03 (setting [23]), with HLA-B*39:01 (setting [23]), with HLA-B*46:01 [8] (setting [23]) and in the test with HLA-B*57:01 [9] (setting [23]) was ≥ 20 µM in each case.

On to PHAATIRVL, for which the Kd in the test with HLA-A*01:01, with HLA-A*02:01 [10] (setting [24]), with HLA-A*03:01 [11] (setting [24]), in the test with HLA-A*29:02 [12], with HLA-A*31:01 [13] and with HLA-A*69:01 [14] (setting [24]) was ≥ 20 µM each time. Further, the Kd with HLA-B*15:01 [15] (setting [24]), in the test with HLA-B*18:01 [16], with HLA-B*27:05, with HLA-B*40:01 (setting [24]), with HLA-B*44:02 and in the test with HLA-B*46:01 [17] was ≥ 20 µM throughout. Also, the Kd with HLA-B*48:01, with HLA-B*57:01 [18] and with HLA-B*58:01 was ≥ 20 µM in each case.

Take ILSFPYLFK: the Kd in the test with HLA-A*03:01 [3] (setting [25]) was 0.0029 µM; with HLA-A*11:01 (setting [25]) it was 0.0038 µM; in the test with HLA-A*31:01 [19], ≥ 20 µM.

SCINGQCPY: the Kd with HLA-A*02:03 (setting [26]), with HLA-A*02:11 (setting [26]), with HLA-A*02:12 [20] (setting [26]), with HLA-A*02:16 (setting [26]), with HLA-A*02:19 (setting [26]) and in the test with HLA-A*03:01 [11] (setting [26]) was ≥ 20 µM throughout. Besides, the Kd with HLA-A*26:01 [21] was 2.22 µM; with HLA-A*68:02 (setting [26]), ≥ 20 µM; with HLA-B*15:01 [15] (source organism: Orthohantavirus andesense) it was 6 µM; in the test with HLA-A*02:01 [1] (setting [27]), ≥ 20 µM; with HLA-A*69:01 [22] (setting [27]), ≥ 20 µM; with HLA-B*18:01 [7] (setting [27]), ≥ 20 µM. Also, the equilibrium dissociation constant (Kd) in the test with HLA-B*27:03 (setting [27]), in the test with HLA-B*39:01 (setting [27]), in the test with HLA-B*46:01 [8] (setting [27]), with HLA-B*51:01 (setting [27]) and with HLA-B*57:01 [9] (setting [27]) was ≥ 20 µM in each case.

On to LESLTDREL, for which the Kd in the test with HLA-A*02:03 (setting [28]), in the test with HLA-A*02:11 (setting [28]), in the test with HLA-A*02:12 [20] (setting [28]), with HLA-A*02:16 (setting [28]), with HLA-A*02:19 (setting [28]) and with HLA-A*03:01 [11] (setting [28]) was ≥ 20 µM in each case. In addition, the equilibrium dissociation constant (Kd) with HLA-A*24:03 is ≥ 20 µM; with HLA-A*68:02 (setting [28]) it was ≥ 20 µM; with HLA-B*40:01 (source organism: Sudan ebolavirus - Uganda (2000)) it was 0.118 µM; with HLA-A*02:01 [1] (setting [28]), ≥ 20 µM; in the test with HLA-A*26:01 [4] (setting [28]), ≥ 20 µM; in the test with HLA-A*69:01 [22] (setting [28]), ≥ 20 µM. Further, the Kd with HLA-B*15:01 [6] (setting [28]), with HLA-B*15:17, in the test with HLA-B*18:01 [7] (setting [28]), in the test with HLA-B*27:03 (setting [28]), with HLA-B*39:01 (setting [28]) and in the test with HLA-B*46:01 [8] (setting [28]) was ≥ 20 µM in each case. Further, the Kd with HLA-B*51:01 (setting [28]) and with HLA-B*57:01 [9] (setting [28]) was ≥ 20 µM throughout.

VVIPTAALQ returned a dissociation constant Kd with HLA-A*29:02 [5] (source organism: Escherichia coli HS) of 0.744 µM.

With FLQQSIFRF, the equilibrium dissociation constant (Kd) with HLA-A*02:01 [10] (setting [29]) was 0.154 µM; in the test with HLA-A*02:03 (source organism: Variola virus) it was 0.747 µM; with HLA-A*02:11 (source organism: Variola virus), 0.002 µM; with HLA-A*69:01 [14] (setting [29]), ≥ 20 µM.
